Assay results taken from the supplement of paper PMC5998384.

Key:
HeLa Kyoto [1] = test: thermal stability score vs G1/S (z-score of summed log2 fold changes over temperatures); higher = more thermally stable than in G1/S
HeLa Kyoto [2] = test: solubility change mitosis vs G1/S (difference of NP-40 vs SDS log2 ratios) (log2 ratio difference); higher = more soluble in mitosis
HeLa Kyoto [3] = test: melting temperature (median over replicates), in situ; higher = more thermally stable
HeLa Kyoto [4] = test: solubility in G1/S (NP-40 vs SDS abundance) (log2 ratio); higher = more soluble; settings: cell cycle stage: G1/S
[5] = cell cycle stage: early G1 (4.5 h after nocodazole release)
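Wherever melting temperature (median over replicates), in situ is given: HeLa Kyoto cells synchronized by double thymidine or nocodazole block, proteins quantified by TMT10plex mass spectrometry, three independent biological replicates.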
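Wherever solubility change mitosis vs G1/S (difference of NP-40 vs SDS log2 ratios) is given: synchronized HeLa Kyoto cells (double thymidine block for G1/S, nocodazole release for mitosis), protein amounts in NP-40 versus SDS lysates quantified by mass spectrometry, three biological replicates.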
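Wherever solubility in G1/S (NP-40 vs SDS abundance) is given: HeLa Kyoto cells arrested at G1/S by double thymidine block, proteins quantified by TMT10plex mass spectrometry in mild NP-40 versus SDS extracts, three biological replicates.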
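Wherever thermal stability score vs G1/S (z-score of summed log2 fold changes over temperatures) is given: synchronized HeLa Kyoto cells, proteins quantified by TMT10plex mass spectrometry, three biological replicates, mitosis taken 0.5 h after nocodazole release, G1/S directly after double thymidine block.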

Row | Sequence | thermal stability score (HeLa Kyoto [1]; [5]) | thermal stability score (HeLa Kyoto [1]; cell cycle stage: mitosis) | solubility change mitosis (log2) (HeLa Kyoto [2]) | melting temperature (HeLa Kyoto [3]; cell cycle stage: G1/S) [°C] | melting temperature (HeLa Kyoto [3]; cell cycle stage: mitosis) [°C] | solubility in G1/S (log2) (HeLa Kyoto [4])
1 | MAGAAPRVRYLAGFCCPLGGLAAGKPRVLCHEAEVFLSTGSELVYVYDQEGGLLTAAFRFPDQVWHLELLAPRRLLYALCARRGLYCLSLDHPGRSRSTSQDDRDSEDGDQPSPVIPVDPDACILPDAALCAFTLLDSVLVTLVQGPARWKMQLFEQPCPGEDPRPGGQIGEVELSSYTPPAGVPGKPAAPHFLPVLCSVSPSGSRVPHDLLGGSGGFTLEDALFGLLFGADATLLQSPVVLCGLPDGQLCCVILKALVTSRSAPGDPNALVKILHHLEEPVIFIGALKTEPQAAEAAENFLPDEDVHCDCLVAFGHHGRMLAIKASWDESGKLVPELREYCLPGPVLCAACGGGGRVYHSTPSDLCVVDLSRGSTPLGPEQPEEGPGGLPPMLCPASLNICSVVSLSASPRTHEGGTKLLALSAKGRLMTCSLDLDSEMPGPARMTTESAGQKIKELLSGIGNISERVSFLKKAVDQRNKALTSLNEAMNVSCALLSSGTGPRPISCTTSTTWSRLQTQDVLMATCVLENSSSFSLDQGWTLCIQVLTSSCALDLDSACSAITYTIPVDQLGPGARREVTLPLGPGENGGLDLPVTVSCTLFYSLREVVGGALAPSDSEDPFLDECPSDVLPEQEGVCLPLSRHTVDMLQCLRFPGLAPPHTRAPSPLGPTRDPVATFLETCREPGSQPAGPASLRAEYLPPSVASIKVSAELLRAALKDGHSGVPLCCATLQWLLAENAAVDVVRARALSSIQGVAPDGANVHLIVREVAMTDLCPAGPIQAVEIQVESSSLADICRAHHAVVGRMQTMVTEQATQGSSAPDLRVQYLRQIHANHETLLREVQTLRDRLCTEDEASSCATAQRLLQVYRQLRHPSLILL [FAAP100] | -0.383 | 0.0611 | -0.00216 | 54 | 52.6 | 0.0643
2 | MAGASELGTGPGAAGGDGDDSLYPIAVLIDELRNEDVQLRLNSIKKLSTIALALGVERTRSELLPFLTDTIYDEDEVLLALAEQLGNFTGLVGGPDFAHCLLPPLENLATVEETVVRDKAVESLRQISQEHTPVALEAYFVPLVKRLASGDWFTSRTSACGLFSVCYPRASNAVKAEIRQQFRSLCSDDTPMVRRAAASKLGEFAKVLELDSVKSEIVPLFTSLASDEQDSVRLLAVEACVSIAQLLSQDDLETLVMPTLRQAAEDKSWRVRYMVADRFSELQKAMGPKITLNDLIPAFQNLLKDCEAEVRAAAAHKVKELGENLPIEDRETIIMNQILPYIKELVSDTNQHVKSALASVIMGLSTILGKENTIEHLLPLFLAQLKDECPDVRLNIISNLDCVNEVIGIRQLSQSLLPAIVELAEDAKWRVRLAIIEYMPLLAGQLGVEFFDEKLNSLCMAWLVDHVYAIREAATNNLMKLVQKFGTEWAQNTIVPKVLVMANDPNYLHRMTTLFCINALSEACGQEITTKQMLPIVLKMAGDQVANVRFNVAKSLQKIGPILDTNALQGEVKPVLQKLGQDEDMDVKYFAQEAISVLALA [PPP2R1B] | 1.92 | 2.96 | -0.0603 | 49.2 | 49.6 | 0.391
3 | MAGGGGDLSTRRLNECISPVANEMNHLPAHSHDLQRMFTEDQGVDDRLLYDIVFKHFKRNKVEISNAIKKTFPFLEGLRDRDLITNKMFEDSQDSCRNLVPVQRVVYNVLSELEKTFNLPVLEALFSDVNMQEYPDLIHIYKGFENVIHDKLPLQESEEEEREERSGLQLSLEQGTGENSFRSLTWPPSGSPSHAGTTPPENGLSEHPCETEQINAKRKDTTSDKDDSLGSQQTNEQCAQKAEPTESCEQIAVQVNNGDAGREMPCPLPCDEESPEAELHNHGIQINSCSVRLVDIKKEKPFSNSKVECQAQARTHHNQASDIIVISSEDSEGSTDVDEPLEVFISAPRSEPVINNDNPLESNDEKEGQEATCSRPQIVPEPMDFRKLSTFRESFKKRVIGQDHDFSESSEEEAPAEASSGALRSKHGEKAPMTSRSTSTWRIPSRKRRFSSSDFSDLSNGEELQETCSSSLRRGSGSQPQEPENKKCSCVMCFPKGVPRSQEARTESSQASDMMDTMDVENNSTLEKHSGKRRKKRRHRSKVNGLQRGRKKDRPRKHLTLNNKVQKKRWQQRGRKANTRPLKRRRKRGPRIPKDENINFKQSELPVTCGEVKGTLYKERFKQGTSKKCIQSEDKKWFTPREFEIEGDRGASKNWKLSIRCGGYTLKVLMENKFLPEPPSTRKKRILESHNNTLVDPCEEHKKKNPDASVKFSEFLKKCSETWKTIFAKEKGKFEDMAKADKAHYEREMKTYIPPKGEKKKKFKDPNAPKRPPLAFFLFCSEYRPKIKGEHPGLSIDDVVKKLAGMWNNTAAADKQFYEKKAAKLKEKYKKDIAAYRAKGKPNSAKKRVVKAEKSKKKKEEEEDEEDEQEEENEEDDDK [SP100] | -2.83 | -2.43 | 0.113 | 51.9 | 51.9 | 0.0834
4 | MAGLSDLELRRELQALGFQPGPITDTTRDVYRNKLRRLRGEARLRDEERLREEARPRGEERLREEARLREDAPLRARPAAASPRAEPWLSQPASGSAYATPGAYGDIRPSAASWVGSRGLAYPARPAQLRRRASVRGSSEEDEDARTPDRATQGPGLAARRWWAASPAPARLPSSLLGPDPRPGLRATRAGPAGAARARPEVGRRLERWLSRLLLWASLGLLLVFLGILWVKMGKPSAPQEAEDNMKLLPVDCERKTDEFCQAKQKAALLELLHELYNFLAIQAGNFECGNPENLKSKCIPVMEAQEYIANVTSSSSAKFEAALTWILSSNKDVGIWLKGEDQSELVTTVDKVVCLESAHPRMGVGCRLSRALLTAVTNVLIFFWCLAFLWGLLILLKYRWRKLEEEEQAMYEMVKKIIDVVQDHYVDWEQDMERYPYVGILHVRDSLIPPQSRRRMKRVWDRAVEFLASNESRIQTESHRVAGEDMLVWRWTKPSSFSDSER [LEMD2] | -1.63 | -1.98 | 0.776 | 52.5 | 51.1 | -0.759
5 | MAGMVDFQDEEQVKSFLENMEVECNYHCYHEKDPDGCYRLVDYLEGIRKNFDEAAKVLKFNCEENQHSDSCYKLGAYYVTGKGGLTQDLKAAARCFLMACEKPGKKSIAACHNVGLLAHDGQVNEDGQPDLGKARDYYTRACDGGYTSSCFNLSAMFLQGAPGFPKDMDLACKYSMKACDLGHIWACANASRMYKLGDGVDKDEAKAEVLKNRAQQLHKEQQKGVQPLTFG [COA7] | -1.59 | -1.97 | 0.0461 | 52.9 | 52.7 | 0.586
6 | MAGRRVNVNVGVLGHIDSGKTALARALSTTASTAAFDKQPQSRERGITLDLGFSCFSVPLPARLRSSLPEFQAAPEAEPEPGEPLLQVTLVDCPGHASLIRTIIGGAQIIDLMMLVIDVTKGMQTQSAECLVIGQIACQKLVVVLNKIDLLPEGKRQAAIDKMTKKMQKTLENTKFRGAPIIPVAAKPGGPEAPETEAPQGIPELIELLTSQISIPTRDPSGPFLMSVDHCFSIKGQGTVMTGTILSGSISLGDSVEIPALKVVKKVKSMQMFHMPITSAMQGDRLGICVTQFDPKLLERGLVCAPESLHTVHAALISVEKIPYFRGPLQTKAKFHITVGHETVMGRLMFFSPAPDNFDQEPILDSFNFSQEYLFQEQYLSKDLTPAVTDNDEADKKAGQATEGHCPRQQWALVEFEKPVTCPRLCLVIGSRLDADIHTNTCRLAFHGILLHGLEDRNYADSFLPRLKVYKLKHKHGLVERAMDDYSVIGRSLFKKETNIQLFVGLKVHLSTGELGIIDSAFGQSGKFKIHIPGGLSPESKKILTPALKKRARAGRGEATRQEESAERSEPSQHVVLSLTFKRYVFDTHKRMVQSP [EEFSEC] | 2.19 | 3.12 | 0.119 | 49.3 | 51.2 | -0.248
7 | MAGRSMQAARCPTDELSLTNCAVVNEKDFQSGQHVIVRTSPNHRYTFTLKTHPSVVPGSIAFSLPQRKWAGLSIGQEIEVSLYTFDKAKQCIGTMTIEIDFLQKKSIDSNPYDTDKMAAEFIQQFNNQAFSVGQQLVFSFNEKLFGLLVKDIEAMDPSILKGEPATGKRQKIEVGLVVGNSQVAFEKAENSSLNLIGKAKTKENRQSIINPDWNFEKMGIGGLDKEFSDIFRRAFASRVFPPEIVEQMGCKHVKGILLYGPPGCGKTLLARQIGKMLNAREPKVVNGPEILNKYVGESEANIRKLFADAEEEQRRLGANSGLHIIIFDEIDAICKQRGSMAGSTGVHDTVVNQLLSKIDGVEQLNNILVIGMTNRPDLIDEALLRPGRLEVKMEIGLPDEKGRLQILHIHTARMRGHQLLSADVDIKELAVETKNFSGAELEGLVRAAQSTAMNRHIKASTKVEVDMEKAESLQVTRGDFLASLENDIKPAFGTNQEDYASYIMNGIIKWGDPVTRVLDDGELLVQQTKNSDRTPLVSVLLEGPPHSGKTALAAKIAEESNFPFIKICSPDKMIGFSETAKCQAMKKIFDDAYKSQLSCVVVDDIERLLDYVPIGPRFSNLVLQALLVLLKKAPPQGRKLLIIGTTSRKDVLQEMEMLNAFSTTIHVPNIATGEQLLEALELLGNFKDKERTTIAQQVKGKKVWIGIKKLLMLIEMSLQMDPEYRVRKFLALLREEGASPLDFD [NSF] | 0.564 | 0.772 | -0.153 | 49.8 | 49.6 | 0.236
8 | MAGSSEEAPDYGRGVVIMDDWPGYDLNLFTYPQHYYGDLEYVLIPHGIIVDRIERLAKDIMKDIGYSDIMVLCVLKGGYKFCADLVEHLKNISRNSDRFVSMKVDFIRLKSYRNDQSMGEMQIIGGDDLSTLAGKNVLIVEDVVGTGRTMKALLSNIEKYKPNMIKVASLLVKRTSRSDGFRPDYAGFEIPNLFVVGYALDYNEYFRDLNHICVINEHGKEKYRV [PRTFDC1] | -0.858 | -0.334 | -0.113 | 56.5 | 55.5 | -0.298
9 | MAGSSTGGGGVGETKVIYHLDEEETPYLVKIPVPAERITLGDFKSVLQRPAGAKYFFKSMDQDFGVVKEEISDDNARLPCFNGRVVSWLVSSDNPQPEMAPPVHEPRAELAPPAPPLPPLPPERTSGIGDSRPPSFHPNVSSSHENLEPETETESVVSLRRERPRRRDSSEHGAGGHRTGGPSRLERHLAGYESSSTLMTSELESTSLGDSDEEDTMSRFSSSTEQSSASRLLKRHRRRRKQRPPRLERTSSFSSVTDSTMSLNIITVTLNMEKYNFLGISIVGQSNERGDGGIYIGSIMKGGAVAADGRIEPGDMLLQVNDMNFENMSNDDAVRVLRDIVHKPGPIVLTVAKCWDPSPQAYFTLPRNEPIQPIDPAAWVSHSAALTGTFPAYPGSSSMSTITSGSSLPDGCEGRGLSVHTDMASVTKAMAAPESGLEVRDRMWLKITIPNAFLGSDVVDWLYHHVEGFPERREARKYASGLLKAGLIRHTVNKITFSEQCYYVFGDLSGGCESYLVNLSLNDNDGSSGASDQDTLAPLPGATPWPLLPTFSYQYPAPHPYSPQPPPYHELSSYTYGGGSASSQHSEGSRSSGSTRSDGGAGRTGRPEERAPESKSGSGSESEPSSRGGSLRRGGEASGTSDGGPPPSRGSTGGAPNLRAHPGLHPYGPPPGMALPYNPMMVVMMPPPPPPVPPAVQPPGAPPVRDLGSVPPELTASRQSFHMAMGNPSEFFVDVM [DVL2] | 0.348 | 0.985 | -0.0693 | 47 | 48.7 | -0.00889
10 | MAGSVGLALCGQTLVVRGGSRFLATSIASSDDDSLFIYDCSAAEKKSQENKGEDAPLDQGSGAILASTFSKSGSYFALTDDSKRLILFRTKPWQCLSVRTVARRCTALTFIASEEKVLVADKSGDVYSFSVLEPHGCGRLELGHLSMLLDVAVSPDDRFILTADRDEKIRVSWAAAPHSIESFCLGHTEFVSRISVVPTQPGLLLSSSGDGTLRLWEYRSGRQLHCCHLASLQELVDPQAPQKFAASRIAFWCQENCVALLCDGTPVVYIFQLDARRQQLVYRQQLAFQHQVWDVAFEETQGLWVLQDCQEAPLVLYRPVGDQWQSVPESTVLKKVSGVLRGNWAMLEGSAGADASFSSLYKATFDNVTSYLKKKEERLQQQLEKKQRRRSPPPGPDGHAKKMRPGEATLSC [WDR4] | 0.0653 | -0.0979 | -0.396 | 52.8 | 53.9 | -0.256
